The values below are quoted from earlier work in publication PMC2846645.

Where two headings read alike, the source gives them in different places.

Common to all, as to assay: surface plasmon resonance
On the technique in general: SPR reads the build-up and loss of mass on a sensor chip optically.

Data set [1] addresses GABAA receptor gamma2 subunit Y365/Y367 motif (UniProt P18507).
The target of data set [2] is GABAA receptor beta3 subunit 400-412 (UniProt P28472).
For data set [3] the target is unchanged. This is another data set of the same source.

By Kd is commonly meant the free concentration of one partner at which half of the binding sites on the other are occupied at equilibrium, for simple one-to-one binding. AP2 mu2 (from UniProt Q96CW1): the figures for the Kd in data set [1], in data set [2] and in data set [3] were 40 nM, 300 nM and 1900 nM, respectively.
